Measurements reported in patent publication US12144818B2, “Method for treating cancer in a human patient by administering an anti-CD37 immunoconjugate using various dosing regimens” (DEBIOPHARM INTERNATIONAL, S.A., priority 2018, dated 2024).

Tests used:
[1] = Phase 1 monotherapy study, safety; assay type: in vivo, human
Description: As such, a more frequent QW dosing schedule with 0.4/0.2/0.2 mg/kg (combined with rituximab Q3W at 375 mg/m^2) should not increase the risk of neutropenia.

[2] = low doses such as 0.4 mg/kg and 0.2 mg/kg; cited from earlier work
[3] = QW versus Q3W regimen, with rituximab
Description: Adverse events are monitored continuously throughout the study. Adverse events include any noxious, pathologic, or unintended change in anatomical, physiologic, or metabolic function as indicated by physical signs, symptoms, or laboratory changes occurring in any phase of a clinical study, whether or not considered study drug-related. PK parameters that are evaluated include, but are not limited to: Cmax, Tmax, Terminal half-life (t1/2), Vss, CL, AUC0-t, AUCinf.

[4] = target: T1, CD37 (Homo sapiens, UniProt P11049); assay: CD37 receptor occupancy on CD3+T and CD56+NK cells of Cohort A and B subjects; assay type: in vivo
T1 construct: endogenous in cells; host or cells: CD3+ T and CD56+ NK lymphocytes in blood samples from DLBCL patients of Cohorts A and B
T1 sequence (P11049 1-281): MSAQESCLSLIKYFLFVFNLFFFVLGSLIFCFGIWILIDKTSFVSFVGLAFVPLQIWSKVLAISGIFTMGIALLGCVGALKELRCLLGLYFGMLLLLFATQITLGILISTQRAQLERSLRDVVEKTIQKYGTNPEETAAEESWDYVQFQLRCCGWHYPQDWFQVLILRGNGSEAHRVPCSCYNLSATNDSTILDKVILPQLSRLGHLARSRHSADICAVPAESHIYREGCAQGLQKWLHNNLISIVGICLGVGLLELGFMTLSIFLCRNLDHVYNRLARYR
From the text: The maximum RO observed at C1D2 (cycle 1-dose 2) and C1D3 was greater than 90% for both cohorts.

[5] = target: T1, CD37; assay: Theoretical receptor occupancy derived from observed Cmax, monotherapy Phase 1 study; assay type: in vivo; details: even at low dose levels
Description: Therefore, a 0.4 mg/kg loading dose followed by 2 weekly doses of 0.2 mg/kg is expected to provide adequate target saturation across a 3-weeks cycle.

[6] = test system: panel of cell lines representative of diverse NHL subtypes (ABC and GCB DLBCL, CLL, MCL); details: in combination with rituximab; described in WO 2016/200676; cited from earlier work

Debio 1562: immunoconjugate containing the huCD37-3 antibody, the SMCC linker, and the DM1 maytansinoid
maximum tolerated dose (MTD) ([1]; Phase 1, without G-CSF): 1 mg/kg
neutrophil count ([1]; majority of patients, single Q3W dosing with 0.2-0.4 mg/kg, Phase 1): no decrease in neutrophil count
clearance [2]: substantially higher at low doses
half-life [2]: lower
safety [3]: comparable in the QW regimen and the Q3W regimen
CD37 receptor occupancy (RO) after administration ([4]; C1D1, CD3+T and CD56+NK lymphocytes, Cohorts A and B): greater than 80%
maximum RO ([4]; C1D2 and C1D3, both cohorts): greater than 90%
RO just before re-administration ([4]; samples just before re-administration in cycle 2 and cycle 3): No RO was observed
saturation of the CD37 sites (theoretical receptor occupancy) [5]: > 95%
pro-apoptotic activity of the combination [6]: synergistic pro-apoptotic activity
